Columns and labels:
[1] = molecular target: HCV E1 envelope glycoprotein of genotype 5a (strain SA13) on retroviral pseudoparticles (Hepatitis C virus genotype 5a, UniProt O91936 1-3014); experiment: cell-based or functional assay
[2] = molecular target: HCV E1 envelope glycoprotein of genotype 6a (strain HK-6a) on retroviral pseudoparticles (Hepatitis C virus genotype 6a); experiment: cell-based or functional assay
[3] = molecular target: HCV E1 envelope glycoprotein of genotype 2a (pJ6CF) on retroviral pseudoparticles (Hepatitis C virus genotype 2a, UniProt P26660 1-3033); experiment: cell-based or functional assay
[4] = molecular target: HCV E1 envelope glycoprotein of genotype 3a (strain S52) on retroviral pseudoparticles (Hepatitis C virus genotype 3a); experiment: cell-based or functional assay
[5] = molecular target: HCV E1 envelope glycoprotein of genotype 4a (strain ED43) on retroviral pseudoparticles (Hepatitis C virus genotype 4a, UniProt O39929 1-3008); experiment: cell-based or functional assay
Chain of HCV E1 envelope glycoprotein of genotype 4a (strain ED43) on retroviral pseudoparticles (O39929 whole entry): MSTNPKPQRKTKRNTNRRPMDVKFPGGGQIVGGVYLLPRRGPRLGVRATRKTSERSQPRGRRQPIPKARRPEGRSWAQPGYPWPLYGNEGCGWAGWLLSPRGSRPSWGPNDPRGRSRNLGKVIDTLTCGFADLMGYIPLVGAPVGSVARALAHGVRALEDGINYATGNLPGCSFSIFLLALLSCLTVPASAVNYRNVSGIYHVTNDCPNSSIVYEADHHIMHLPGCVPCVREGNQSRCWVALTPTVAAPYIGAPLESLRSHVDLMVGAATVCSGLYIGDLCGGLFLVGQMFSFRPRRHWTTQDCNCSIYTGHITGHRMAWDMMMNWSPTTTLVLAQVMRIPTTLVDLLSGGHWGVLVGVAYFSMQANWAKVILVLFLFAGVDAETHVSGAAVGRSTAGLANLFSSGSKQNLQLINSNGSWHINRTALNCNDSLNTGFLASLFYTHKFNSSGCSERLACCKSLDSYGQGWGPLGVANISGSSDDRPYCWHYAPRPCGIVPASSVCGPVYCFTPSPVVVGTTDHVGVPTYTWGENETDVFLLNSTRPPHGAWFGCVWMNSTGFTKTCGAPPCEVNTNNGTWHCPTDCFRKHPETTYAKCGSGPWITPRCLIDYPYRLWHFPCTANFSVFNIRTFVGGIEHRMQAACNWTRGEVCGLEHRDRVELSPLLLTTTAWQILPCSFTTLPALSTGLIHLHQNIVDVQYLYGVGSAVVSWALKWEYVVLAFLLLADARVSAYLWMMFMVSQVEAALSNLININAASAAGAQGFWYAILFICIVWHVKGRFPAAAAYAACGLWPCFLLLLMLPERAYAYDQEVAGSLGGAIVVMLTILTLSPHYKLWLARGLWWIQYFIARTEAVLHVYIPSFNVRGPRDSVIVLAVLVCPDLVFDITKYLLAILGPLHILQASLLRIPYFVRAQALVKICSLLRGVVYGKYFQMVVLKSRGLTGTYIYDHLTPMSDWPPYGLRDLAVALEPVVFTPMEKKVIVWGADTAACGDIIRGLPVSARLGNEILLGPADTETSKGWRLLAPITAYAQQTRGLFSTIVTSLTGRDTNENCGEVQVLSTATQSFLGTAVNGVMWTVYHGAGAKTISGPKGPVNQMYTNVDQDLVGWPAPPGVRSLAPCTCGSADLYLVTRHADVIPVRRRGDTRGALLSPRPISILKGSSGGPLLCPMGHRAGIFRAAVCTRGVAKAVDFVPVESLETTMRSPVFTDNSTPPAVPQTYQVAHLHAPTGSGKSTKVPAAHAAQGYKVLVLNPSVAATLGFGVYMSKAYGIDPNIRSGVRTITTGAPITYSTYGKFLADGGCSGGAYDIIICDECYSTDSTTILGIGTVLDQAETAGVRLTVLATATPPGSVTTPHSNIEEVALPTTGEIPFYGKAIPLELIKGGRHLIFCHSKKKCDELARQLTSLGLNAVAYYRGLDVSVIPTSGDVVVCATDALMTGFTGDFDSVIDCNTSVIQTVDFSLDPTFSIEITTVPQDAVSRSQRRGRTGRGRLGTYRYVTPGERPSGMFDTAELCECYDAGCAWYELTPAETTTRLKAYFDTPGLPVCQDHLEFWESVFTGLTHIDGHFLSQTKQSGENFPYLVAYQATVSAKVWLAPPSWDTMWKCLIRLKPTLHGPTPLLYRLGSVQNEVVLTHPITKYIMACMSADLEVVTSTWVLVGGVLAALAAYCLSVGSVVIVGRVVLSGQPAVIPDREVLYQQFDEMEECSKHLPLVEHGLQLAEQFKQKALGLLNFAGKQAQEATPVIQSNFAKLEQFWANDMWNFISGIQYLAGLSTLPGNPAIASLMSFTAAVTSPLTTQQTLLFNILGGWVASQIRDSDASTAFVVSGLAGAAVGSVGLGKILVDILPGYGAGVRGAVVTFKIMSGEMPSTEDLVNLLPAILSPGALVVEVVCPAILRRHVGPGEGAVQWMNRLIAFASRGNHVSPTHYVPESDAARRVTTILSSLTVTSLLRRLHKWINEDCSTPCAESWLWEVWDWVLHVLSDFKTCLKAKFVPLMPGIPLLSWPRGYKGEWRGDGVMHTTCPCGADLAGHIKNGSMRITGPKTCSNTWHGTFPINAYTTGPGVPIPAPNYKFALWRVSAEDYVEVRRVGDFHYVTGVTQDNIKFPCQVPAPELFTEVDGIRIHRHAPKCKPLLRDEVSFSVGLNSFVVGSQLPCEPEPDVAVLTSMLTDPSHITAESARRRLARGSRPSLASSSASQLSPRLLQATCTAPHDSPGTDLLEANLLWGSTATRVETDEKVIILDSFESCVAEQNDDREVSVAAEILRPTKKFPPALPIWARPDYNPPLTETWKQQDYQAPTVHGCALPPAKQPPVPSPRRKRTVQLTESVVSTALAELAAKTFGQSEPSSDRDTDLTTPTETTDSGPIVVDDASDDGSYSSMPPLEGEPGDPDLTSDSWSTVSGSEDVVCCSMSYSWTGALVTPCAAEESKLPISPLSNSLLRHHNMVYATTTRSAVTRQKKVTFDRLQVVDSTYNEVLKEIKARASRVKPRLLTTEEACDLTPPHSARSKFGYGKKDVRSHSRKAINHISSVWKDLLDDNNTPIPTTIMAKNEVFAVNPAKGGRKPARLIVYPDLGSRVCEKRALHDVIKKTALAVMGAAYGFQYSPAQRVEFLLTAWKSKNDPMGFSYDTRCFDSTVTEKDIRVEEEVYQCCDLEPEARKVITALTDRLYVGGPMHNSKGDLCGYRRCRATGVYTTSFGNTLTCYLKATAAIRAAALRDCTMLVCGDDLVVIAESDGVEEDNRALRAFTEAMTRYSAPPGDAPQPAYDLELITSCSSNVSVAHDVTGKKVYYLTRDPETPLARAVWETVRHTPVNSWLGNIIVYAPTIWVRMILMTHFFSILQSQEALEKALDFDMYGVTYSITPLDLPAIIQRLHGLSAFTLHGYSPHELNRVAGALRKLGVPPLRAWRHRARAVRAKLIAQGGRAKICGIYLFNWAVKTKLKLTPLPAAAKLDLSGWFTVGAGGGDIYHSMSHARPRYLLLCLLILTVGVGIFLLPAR

[6] = molecular target: HCV E1 envelope glycoprotein of genotype 1a strain H77 on retroviral pseudoparticles (HCVpp) (Hepatitis C virus genotype 1a strain H77, UniProt P27958 1-3011); experiment: cell-based or functional assay
[7] = molecular target: HCV E1 envelope glycoprotein of genotype 1b (HCCl 66) on retroviral pseudoparticles (Hepatitis C virus genotype 1b); experiment: cell-based or functional assay
IGP 2254 = IGP 2254 (Hepatitis C virus (HCV), N-terminal Biotin; C-terminal -CONH2); experiment: BIAcore, antibody immobilized, peptide IGP 2254 in solution
IGP 2137 = molecular target: T1, IGP 2137 (Hepatitis C virus (HCV)); experiment: ELISA, […], antibody at 1.25 µg/mL
T1 construct: also called RMAWDM

IGP 2241 = molecular target: T2, IGP 2241 (Hepatitis C virus (HCV)); experiment: ELISA, […], antibody at 1.25 µg/mL
T2 construct: E1 peptide

IGP 2138 = molecular target: T3, IGP 2138 (Hepatitis C virus (HCV)); experiment: ELISA, […], antibody at 1.25 µg/mL
T3 construct: also called WDMMMNW

Binder | lowest concentration of antibody in µg/ml exhibiting at least 50% neutralization (HCVpp) [1] [µg/mL] | lowest concentration of antibody in µg/ml exhibiting at least 50% neutralization (HCVpp) [2] [µg/mL] | lowest concentration of antibody in µg/ml exhibiting at least 50% neutralization (HCVpp) [3] [µg/mL] | lowest concentration of antibody in µg/ml exhibiting at least 50% neutralization (HCVpp) [4] [µg/mL] | lowest concentration of antibody in µg/ml exhibiting at least 50% neutralization (HCVpp) [5] [µg/mL] | lowest concentration of antibody in µg/ml exhibiting at least 50% neutralization (HCVpp) [6] [µg/mL] | lowest concentration of antibody in µg/ml exhibiting at least 50% neutralization (HCVpp) [7] [µg/mL] | Kd (IGP 2254) [nM] | koff (IGP 2254) [s⁻¹] | kon (IGP 2254) [M⁻¹ s⁻¹] | binding result (IGP 2137) | binding result (IGP 2241) | binding result (IGP 2138)
17H1 (antibody, V domains shown, also called 17H1D9; IGH 520) VH: QVQFVQSGAEVKKPGASVKVSCKASGYTFTRHAIHWVRQAPGQRLEWMGWINPGNGNAKYSQKFQGRVTITRDTPASTVYMELSSLRSEDMGVYYCARDGGYSHDYSYFYGLDVWGPGTTVIVSS VL: QSVLTQPPSASGTPGQRVTISCSGSSSNIGGNFVDWYQQFPGTAPKLLIYTNDQRPSGVPARFSGSKSGTSASLAISGLRSEDEADYYCAAWDDIVNGWVFGGGTKLTVRG | < 1 | 6.2 | 50 | < 50 | < 1 | 3.1 | 6.2 | 0.15 | 0.000357 | 2.35e+06 | – | – | –
48G5 (antibody, V domains shown, also called 48G5C4; IGH 526) VH: QVQLVQSGAEVKRPGASVKVSCKASGYTFTSYAIHWVRQAPGQRLEWMGWINPGNGNAKYSQRFQGRVIISRDTSATTSYMELSSLTSEDTAVYSCARDRGFDLLTGHYLGLDPWGQGTLVTVSS VL: not shown | 1.6 | 3.1 | 50 | > 50 | 6.2 | < 1 | 12.5 | 0.2 | 0.000305 | 1.54e+06 | no binding (tested: 1.25 µg/ml) | no binding (tested: 1.25 µg/ml) | no binding (tested: 1.25 µg/ml)

Source: patent US20090311248A1 (published 2009)
